Reference: patent publication US20080312140A1 (published 2008)
Starred links: 1 amine or outer side, 2 acyl side, 3 side chain; linkers in the order of their positions; H or OH if unused. No end group written: not given here. N(2-Aminoethyl)Gly = O=C(CN(CCN[*:3])[*:1])[*:2]

These binders were tested against HIV-1 envelope glycoprotein gp120 (HIV-1) (assay: cell-based or functional assay).

| Binder | IC50 of infection inhibition (Cell Infection Inhibition Assay, CD4 expressing Hela P4 cells) |
| --- | --- |
| RQGSFG-NH2 (bridge (positions not given here) via N(2-Aminoethyl)Gly; also: backbone cyclised via N-(aminoethyl)Gly building unit and dicarboxylic acid bridge (m=2), structure in drawing only) [C2-1] | 33 µM |
| RQGSFG-NH2 (bridge (positions not given here) via N(2-Aminoethyl)Gly; also: backbone cyclised via N-(aminoethyl)Gly building unit and dicarboxylic acid bridge (m=3), structure in drawing only) [C2-2] | 81 µM |
| RQGSFG-NH2 (bridge (positions not given here) via N(2-Aminoethyl)Gly; also: backbone cyclised via N-(aminoethyl)Gly building unit and dicarboxylic acid bridge (m=4), structure in drawing only) [C2-3] | 81 µM |
